A value given as a limit tells only on which side of the number the result lay.

This assay addresses OT-I T cell receptor on OTi target T cells (splenocytes from OT-I mouse) (mouse). Put plainly: cell-based or functional assay.

“FITC-conjugated H2Kb-SIINFEKL tetramer (from UniProt P01901 22-305) (peptide-MHC)” gave a cytotoxicity of CD8 CAR T cells on OTi cells of over 50%.

(Values after patent US20240139242A1.)
